Assay results reported in patent publication US20080070838A1, “Growth Factor Treatment for Asthma” (University of Southampton, priority 2004, published 2008).
Entries after “also recorded” stand apart in the source; their conditions may differ.

What was measured:
[1] = test system: primary bronchial epithelial cells from normal subjects; experiment: Proliferation assay (methylene blue), primary bronchial epithelial cell cultures from normal controls; format: cell-based, human; conditions: 1.7 nM EGF for 24 hours vs serum free medium, FIG. 2a
Description: (§1) Bronchial brushings were taken from non-atopic, non-asthmatic control subjects and asthmatic subjects. Volunteers were characterised according to symptoms, pulmonary function and medication. Assessment of asthma severity was in accordance with the GINA guidelines on the diagnosis and management of asthma (Bousquet (2000) Global initiative for asthma (GINA) and its objectives.
(§2) Bronchial brushings were obtained by bronchoscopy using a fibreoptic bronchoscope (Olympus FB-20D, Tokyo, Japan) in accordance with standard published guidelines (Hurd S. Z. (1991) J. Allergy Clin. Immunol. 88, 808-814). Bronchial epithelial cells were obtained using a standard sterile single-sheathed nylon cytology brush (Olympus BC 9C-26101; Tokyo, Japan). […] Epithelial cell purity was assessed by performing differential cell counts on cytospins of the harvested cell suspension. […]
(§3) Cells were prepared in 24 well trays at a seeding density of a minimum of 4×10^4 cells/ml primary BECs. […] Absorbance of the eluant was determined using a Multiskan ascent plate reader after a 1:10 dilution with 1:1 ethanol:0.1% HCl to provide an absorbance within the linear range of the plate reader. Absorbance was read using a 630 nm filter and each sample was tested in duplicate. A standard curve was generated by direct cell counting to enable cell number to be related to methylene blue readings. […]

[2] = test system: primary bronchial epithelial cells from asthmatic subjects; experiment: Proliferation assay (methylene blue), primary bronchial epithelial cell cultures from asthmatic subjects; format: cell-based, human; conditions: 1.7 nM EGF for 24 hours vs serum free medium, FIG. 2b
Description: as §1, §2, §3

B1: EGF: epithelial growth factor; wild-type mouse EGF produced in Pischia pastoris (protein)
chain: WQTGNCQPGPLERSERSGTCAGPAPFLVFSQGKSISRIDPDGTNHQQLVVDAGISADMDIHYKKERLYWVDVERQVLLRVFLNGTGLEKVCNVERKVSGLAIDWIDDEVLWVDQQNGVITVTDMTGKNSRVLLSSLKHPSNIAVDPIERLMFWSSEVTGSLHRAHLKGVDVKTLLETGGISVLTLDVLDKRLFWVQDSGEGSHAYIHSCDYEGGSVRLIRHQARHSLSSMAFFGDRIFYSVLKSKAIWIANKHTGKDTVRINLHPSFVTPGKLMVVHPRAQPRTEDAAKDPDPELLKQRGRPCRFGLCERDPKSHSSACAEGYTLSRDRKYCEDVNECATQNHGCTLGCENTPGSYHCTCPTGFVLLPDGKQCHELVSCPGNVSKCSHGCVLTSDGPRCICPAGSVLGRDGKTCTGCSSPDNGGCSQICLPLRPGSWECDCFPGYDLQSDRKSCAASGPQPLLLFANSQDIRHMHFDGTDYKVLLSRQMGMVFALDYDPVESKIYFAQTALKWIERANMDGSQRERLITEGVDTLEGLALDWIGRRIYWTDSGKSVVGGSDLSGKHHRIIIQERISRPRGIAVHPRARRLFWTDVGMSPRIESASLQGSDRVLIASSNLLEPSGITIDYLTDTLYWCDTKRSVIEMANLDGSKRRRLIQNDVGHPFSLAVFEDHLWVSDWAIPSVIRVNKRTGQNRVRLQGSMLKPSSLVVVHPLAKPGADPCLYRNGGCEHICQESLGTARCLCREGFVKAWDGKMCLPQDYPILSGENADLSKEVTSLSNSTQAEVPDDDGTESSTLVAEIMVSGMNYEDDCGPGGCGSHARCVSDGETAECQCLKGFARDGNLCSDIDECVLARSDCPSTSSRCINTEGGYVCRCSEGYEGDGISCFDIDECQRGAHNCGENAACTNTEGGYNCTCAGRPSSPGLSCPDSTAPSLLGEDGHHLDRNSYPGCPSSYDGYCLNGGVCMHIESLDSYTCNCVIGYSGDRCQTRDLRWWELRHAGYGQKHDIMVVAVCMVALVLLLVLGMWGTYYYRTRKQLSNPPKNPCDEPSGSVSSSGPNSSSGAAVASCPQPWFVVLEKHQDPKNGSLPADGTNGAVVDAGLSPSLQLGSVHLTSWRQKPHIDGMGTGQSCWIPPSSDRGPQEIEGNSHLPSYRPVGPEKLHSLQSANGSCHERAPDLPRQTEPVQ
- effect on cell number (proliferation) [1]: no effect on cell number; also recorded: unaffected
- effect on cell number (proliferation) [2]: small but significant increase in cell number; also recorded: require exogenous EGF for maximal proliferation
